This experiment concerns the target biotinylated CD3 epsilon epitope peptide. The experiment in a line: SPR Biacore, method of Ref. Ex. 11. A general note: In SPR one partner is held on a chip, and binding of the other changes the refractive index at the surface.

As a reminder, the Kd is the constant that tells how readily two partners part at equilibrium.

B1: CE115HA000 (antibody, V domains shown)
VH: QVQLVESGGGVVQPGRSLRLSCAASGFTFSNAWMHWVRQAPGKGLEWVAQIKAKSNNYATYYAESVKGRFTISRDDSKNSLYLQMNSLKTEDTAVYYCRYVHYGAYYGVDAWGQGTTVTVSS
VL: DIVMTQSPLSLPVTPGEPASISCRSSQSLVHSNRNTYLHWYQQKPGQAPRLLIYKVSNRFSGVPDRFSGSGSGTDFTLKISRVEAEDVGVYYCGQGTQVPYTFGQGTKLEIK
Consider B1, for which the Kd worked out at 110 nM.

For the origin of these results see patent publication US20220112296A1.
